Experimental findings from publication PMC4854733 (The Journal of Experimental Medicine, 2016) are described below.

Data set [1] deals with the molecule itself. As to the kind of experiment: negative-stain electron microscopy.
Data set [2] concerns the molecule itself. As to the kind of experiment: fluorescence polarisation. For orientation: Fluorescence polarisation rises when a labelled molecule tumbles more slowly, as on binding a larger partner.
Data set [3] concerns the molecule itself. As to the kind of experiment: SEC. For orientation: In gel filtration, larger molecules generally elute earlier.

B1: ASC^CARD-SUMO (domain or fragment)
chain: AAKPGLHFIDQHRAALIARVTNVEWLLDALYGKVLTDEQYQAVRAEPTNPSKMRKLFSFTPAWNWTCKDLLLQALRESQSYLVEDLERS
For the protein B1, the binding result in data set [1] is reported as “binds”.

B2: fluorescently labeled ASC^CARD-SUMO (domain or fragment)
chain: B1 chain
modifications: fluorophore joined by sortase at the C-terminal sortase motif
As for B2, the binding result in data set [2] was “binds”.

B3: GFP-ASC^CARD (domain or fragment)
chain: B1 chain
For B3, in data set [3], the binding result is recorded as “binds”.
